According to patent US8598314B2 (priority 2007, dated 2013):
“Also recorded” adds a separate entry of the source. Read-outs that look alike come from different tables or passages of the source.

What was measured:
Recombinant DPP-IV = Recombinant DPP-IV (Homo sapiens, UniProt P27487); test: DPP-IV resistance assay by mass spectrometry
Protocol: The peptides were then desalted and concentrated on a C18 peptide micro trap (Michrom Bioresources, Inc., Auburn, Calif.) prior to introduction to a LTQ FT™ mass spectrometer (Thermo-Electron Corp., Waltham, Mass.) via an autosampler (Michrom Bioresources, Inc.). Peptides were eluted from a C5 packed 75 μm fused silica pico-frit column (New Objective, Inc., Woburn, Mass.) using a 5-60% acetonitrile/water gradient over 50 minutes at a flow rate of 500 nl/min. Extracted ion mass windows for the calculated m/z values of the most dominant charge states were used to search for both the parent compound and the theoretical hydrolyzed products within a given chromatogram. Exact mass was confirmed for each charge state by FT. The percentage of hydrolysis catalyzed by DPP-IV was estimated by dividing the area of product ions by the area of the total (parent+product) ions.
The estimated cleavage product conversion is based on the ratio of the ion extract area (indicated on top of the peaks) for [product ion]^5+ over that for total ions ([Mother Ion]^5++[product ion]^5+). The m/z ratios used to search for the expected ions are listed on the right side of the plots.

NIH/Swiss mice = test: Oral glucose tolerance test (OGTT), glucose lowering; format: in vivo; conditions: IP injection, 2 hour fasted NIH/Swiss mice, FIGS. 5 and 6
Protocol: . Test compounds were injected IP (t=0 min) immediately following baseline measurements of 2 hour fasted NIH/Swiss mice. Blood samples were taken at 60, 120, and 180 minutes after injection. In some assays, samples were also taken at 240 minutes after the injection. Blood glucose was measured with a One-Touch® Ultra® glucose meter (LifeScan, Inc., Milpitas, Calif.). […].
The tests were performed as described in Example 5.

in vitro = conditions: human, kidney or brush border membranes, pH 7.4
Protocol: The tubes were incubated in VorTemp 56™ (Eurotech Labs, UK) at 37° C. vortexed at 500 RPM. At time points of 0, 1, 2, 3, 4, and 5 hours, 200 μl STOP solution (50% ACN, 1% formic acid) was added to a given tube, and the samples were allowed to incubate until the end of the experiment. The samples were collected after 5 hours, centrifuged, and 200 μl of the supernatants were transferred into mass spectrometry vials. The intensities of the mother ions in each vial were analyzed with API 150EX™ mass spectrometer (Applied Biosystems, Foster City, Calif.) and quantified using the ANALYST™ program.
The hKBBM assay was also performed in the presence of valinepyrrolidide, a DPP-IV inhibitor.

[1] = in vivo; cited from earlier work

Recombinant DPP-IV, sequence (P27487 whole entry, species assumed, the tested form may be a part): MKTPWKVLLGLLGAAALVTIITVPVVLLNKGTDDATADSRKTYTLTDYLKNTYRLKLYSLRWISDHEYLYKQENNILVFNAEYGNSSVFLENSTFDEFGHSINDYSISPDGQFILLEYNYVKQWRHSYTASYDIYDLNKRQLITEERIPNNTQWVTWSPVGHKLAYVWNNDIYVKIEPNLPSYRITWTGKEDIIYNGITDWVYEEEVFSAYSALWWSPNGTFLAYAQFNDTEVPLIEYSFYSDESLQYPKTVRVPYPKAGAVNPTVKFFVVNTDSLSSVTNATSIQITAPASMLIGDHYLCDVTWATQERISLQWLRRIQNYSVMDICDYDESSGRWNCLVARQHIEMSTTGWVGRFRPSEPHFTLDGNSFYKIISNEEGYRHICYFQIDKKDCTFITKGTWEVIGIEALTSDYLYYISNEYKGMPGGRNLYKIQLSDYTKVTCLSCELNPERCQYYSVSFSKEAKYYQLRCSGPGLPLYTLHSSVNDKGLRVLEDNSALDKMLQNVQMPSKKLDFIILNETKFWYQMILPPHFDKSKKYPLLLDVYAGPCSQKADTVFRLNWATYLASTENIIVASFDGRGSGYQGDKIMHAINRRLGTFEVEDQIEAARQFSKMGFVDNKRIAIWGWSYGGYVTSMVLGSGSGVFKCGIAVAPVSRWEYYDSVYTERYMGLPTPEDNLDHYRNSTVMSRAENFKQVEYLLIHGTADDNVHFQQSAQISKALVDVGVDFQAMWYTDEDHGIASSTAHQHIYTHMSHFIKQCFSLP

## CC[C@H](C)[C@H](NC(=O)[C@H](Cc1ccccc1)NC(=O)[C@H](CCC(=O)O)NC(=O)[C@H](CCCCN)NC(=O)[C@H](C)NC(=O)[C@H](C)NC(=O)[C@H](CCC(N)=O)NC(=O)CNC(=O)[C@H](CCC(=O)O)NC(=O)[C@H](CC(C)C)NC(=O)[C@H](Cc1ccc(O)cc1)NC(=O)[C@H](CO)NC(=O)[C@H](CO)NC(=O)[C@@H](NC(=O)[C@H](CC(=O)O)NC(=O)[C@H](CO)NC(=O)[C@@H](NC(=O)[C@H](Cc1ccccc1)NC(=O)[C@@H](NC(=O)CNC(=O)[C@H](CCC(=O)O)NC(=O)[C@H](C)NC(=O)[C@@H](N)Cc1c[nH]cn1)[C@@H](C)O)[C@@H](C)O)C(C)C)C(=O)N[C@@H](C)C(=O)N[C@@H](Cc1c[nH]c2ccccc12)C(=O)N[C@@H](CC(C)C)C(=O)N[C@H](C(=O)N[C@@H](CCCCN)C(=O)NCC(=O)N[C@@H](CCCNC(=N)N)C(=O)NCC(=O)NCC(=O)NCC(=O)NCCCC[C@H](N)C(=O)N1CCSC1)C(C)C [Compound 4844, GLP-1(7-37)-GG-(S)-2,6-diamino-1-(thiazolidin-3-yl)hexan-1-one amide]
Recombinant DPP-IV; treated with 0.1 mU DPP-IV
  DPP-IV resistance (in words): expected product ions were not observed

## CC[C@H](C)[C@H](NC(=O)[C@H](Cc1ccccc1)NC(=O)[C@H](CCC(=O)O)NC(=O)[C@H](CCCCN)NC(=O)[C@H](C)NC(=O)[C@H](C)NC(=O)[C@H](CCC(N)=O)NC(=O)CNC(=O)[C@H](CCC(=O)O)NC(=O)[C@H](CC(C)C)NC(=O)[C@H](Cc1ccc(O)cc1)NC(=O)[C@H](CO)NC(=O)[C@H](CO)NC(=O)[C@@H](NC(=O)[C@H](CC(=O)O)NC(=O)[C@H](CO)NC(=O)[C@@H](NC(=O)[C@H](Cc1ccccc1)NC(=O)[C@@H](NC(=O)CNC(=O)[C@H](CCC(=O)O)NC(=O)[C@H](C)NC(=O)[C@@H](N)Cc1c[nH]cn1)[C@@H](C)O)[C@@H](C)O)C(C)C)C(=O)N[C@@H](C)C(=O)N[C@@H](Cc1c[nH]c2ccccc12)C(=O)N[C@@H](CC(C)C)C(=O)N[C@H](C(=O)N[C@@H](CCCCN)C(=O)NCC(=O)N[C@@H](CCCNC(=N)N)C(=O)NCC(=O)NCC(=O)NCC(=O)NCCCC[C@H](N)C(=O)N1CCSC1C#N)C(C)C (stereo partly drawn) [Compound 4845, GLP-1(7-37)-GG-(S)-2,6-diamino-1-(thiazolidin-2-cyano-3-yl)hexan-1-one amide]
Recombinant DPP-IV
  DPP-IV resistance (in words): expected product ions were not observed

## CC[C@H](C)[C@H](NC(=O)[C@H](Cc1ccccc1)NC(=O)[C@H](CCC(=O)O)NC(=O)[C@H](CCCCN)NC(=O)[C@H](C)NC(=O)[C@H](C)NC(=O)[C@H](CCC(N)=O)NC(=O)CNC(=O)[C@H](CCC(=O)O)NC(=O)[C@H](CC(C)C)NC(=O)[C@H](Cc1ccc(O)cc1)NC(=O)[C@H](CO)NC(=O)[C@H](CO)NC(=O)[C@@H](NC(=O)[C@H](CC(=O)O)NC(=O)[C@H](CO)NC(=O)[C@@H](NC(=O)[C@H](Cc1ccccc1)NC(=O)[C@@H](NC(=O)CNC(=O)[C@H](CCC(=O)O)NC(=O)[C@H](C)NC(=O)[C@H](Cc1c[nH]cn1)NC(=O)COCCOCCNC(=O)COCCOCCNC(=O)[C@@H]1CCCN1C(=O)[C@H](C)NC(CCc1ccccc1)C(=O)O)[C@@H](C)O)[C@@H](C)O)C(C)C)C(=O)N[C@@H](C)C(=O)N[C@@H](Cc1c[nH]c2ccccc12)C(=O)N[C@@H](CC(C)C)C(=O)N[C@H](C(=O)N[C@@H](CCCCN)C(=O)NCC(=O)N[C@@H](CCCNC(=N)N)C(N)=O)C(C)C (stereo partly drawn) [Compound 4984, (R,S)-1-[N^2-(1-carboxy-3-phenylpropyl)-L-ala]-L-pro-8-amino-3,6-dioxaoctanoyl-8-amino-3,6-dioxaoctanoyl-GLP-1-(7-36) amide]
NIH/Swiss mice
  glucose lowering in OGTT (in words): enhance glucose-lowering action compared to GLP-1; also recorded: prolonged effect 4 hours after dosing
In vitro
  remaining at 4 h: > 80%

## CC[C@H](C)[C@H](NC(=O)[C@H](Cc1ccccc1)NC(=O)[C@H](CCC(=O)O)NC(=O)[C@H](CCCCN)NC(=O)[C@H](C)NC(=O)[C@H](C)NC(=O)[C@H](CCC(N)=O)NC(=O)CNC(=O)[C@H](CCC(=O)O)NC(=O)[C@H](CC(C)C)NC(=O)[C@H](Cc1ccc(O)cc1)NC(=O)[C@H](CO)NC(=O)[C@H](CO)NC(=O)[C@@H](NC(=O)[C@H](CC(=O)O)NC(=O)[C@H](CO)NC(=O)[C@@H](NC(=O)[C@H](Cc1ccccc1)NC(=O)[C@@H](NC(=O)CNC(=O)[C@H](CCC(=O)O)NC(=O)[C@H](C)NC(=O)[C@@H](N)Cc1c[nH]cn1)[C@@H](C)O)[C@@H](C)O)C(C)C)C(=O)N[C@@H](C)C(=O)N[C@@H](Cc1c[nH]c2ccccc12)C(=O)N[C@@H](CC(C)C)C(=O)N[C@H](C(=O)N[C@@H](CCCCN)C(=O)NCC(=O)N[C@@H](CCCNC(=N)N)C(N)=O)C(C)C [GLP-1, reference compound]
[1]
  metabolic clearance rate: 12 to 13 min
